Measurements as given in patent US11912794B2, “Modulation of structured polypeptide specificity” (BicycleRD Limited, priority 2011, dated 2024).
Numbered stars: 1 amine (or outer) side, 2 acyl side, 3 side chain; on linkers, the order of the positions; unused ones are H or OH. Bridge positions count the residues as written; N and C are the ends. Ends that are not written are not given here. Peptide text beside a SMILES is read from it. TBMB = c1c(C[*:1])cc(C[*:3])cc1C[*:2]

Experiments:
[1] = biological target: biotinylated human plasma Kallikrein (Homo sapiens, UniProt P03952); assay: Phage binding assay of individual clones, randomisation of peptide domains
biotinylated human plasma Kallikrein, sequence (P03952 20-638): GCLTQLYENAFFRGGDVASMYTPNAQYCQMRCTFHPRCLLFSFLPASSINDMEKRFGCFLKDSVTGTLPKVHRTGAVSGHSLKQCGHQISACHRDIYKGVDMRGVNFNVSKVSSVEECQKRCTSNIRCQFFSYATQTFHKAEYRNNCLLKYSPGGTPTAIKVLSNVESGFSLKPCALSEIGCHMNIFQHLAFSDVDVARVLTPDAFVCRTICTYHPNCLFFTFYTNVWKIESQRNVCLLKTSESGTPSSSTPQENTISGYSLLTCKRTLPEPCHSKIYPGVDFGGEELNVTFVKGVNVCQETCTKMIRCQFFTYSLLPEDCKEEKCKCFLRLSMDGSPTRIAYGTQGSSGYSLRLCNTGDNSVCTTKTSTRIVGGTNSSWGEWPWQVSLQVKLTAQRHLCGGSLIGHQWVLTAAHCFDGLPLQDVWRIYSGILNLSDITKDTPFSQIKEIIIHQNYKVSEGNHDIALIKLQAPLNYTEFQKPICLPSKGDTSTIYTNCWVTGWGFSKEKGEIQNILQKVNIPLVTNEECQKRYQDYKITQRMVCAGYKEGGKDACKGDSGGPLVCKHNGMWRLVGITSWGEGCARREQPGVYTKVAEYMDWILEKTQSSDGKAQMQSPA
Excerpt: Library construction: Small phage libraries were generated according to the methods of Heinis et al as described in ‘Cloning of phage libraries’ above. The sficx3ba primer was modified such that the bicycle-encoding portion was based on a parent 5×5 bicycle (5×5: two 5-residue loops) DNA sequence with only 4-6 codons randomized to NNS. The randomized codons were those encoding the peptide domain/motif of interest.
Assay of binding of individual clones: Library transformant colonies, or selection output colonies, were picked and grown as individual cultures in 2TY broth containing selective antibiotic. The picked colonies were DNA-sequenced using a QIAgen PyroMark Q96 DNA sequencer to reveal the amino-acid substitution present in each clone, and were assayed for human plasma Kallikrein binding as follows. The phage-containing supernatant was harvested from the culture and phage were cyclised with tris bromomethyl benzene(TBMB) based on the methods of Heinis et al (Nature Chemical Biology vol. 5 pp 502-507 (2009)). The purified phage from this process were assayed for binding to biotinylated human plasma Kallikrein using a homogeneous plate-based binding assay; assay read-out measured on a BMG Labtech Pherastar FS plate reader. The quantitative binding data from duplicate assay samples was averaged (mean) and expressed as signal:background. Assay data shown is representative of at least 2 independent experiments. The assay data was correlated with the peptide sequences.
The WPAR (SEQ ID NO: 18) motif identified from Example 1 was analysed in the context of the 06-34-03 peptide, in order to identify alternatives or improvements to the WPAR (SEQ ID NO: 18) motif. A library was constructed where positions 1, 6, 7, 8, 9 &10 of 06-34-03 were fixed and positions 2, 3, 4 & 5 were randomised (see ‘Randomisation of peptide domains—Library construction’ in Methods above). Selections against human plasma Kallikrein were performed at a variety of stringencies (see Phage selections' in Methods above). All output sequences were identified and analysed for target binding (see ‘Randomisation of peptide domains—Assay of binding of individual clones’ in Methods above). Table 17 lists each unique sequence, its relative abundance in the selection output (frequency), and a rank number according to target binding strength.
Selections against human plasma Kallikrein were performed with this library in order to study the non-WPAR (SEQ ID NO: 18) determinants of Kallikrein binding, and to isolate the optimal WPAR (SEQ ID NO: 18)-containing peptide sequence. Over 150 selection output sequences were isolated and screened for binding to human plasma Kallikrein (as described in Methods above). The sequences were ranked in order of Kallikrein binding and the top 50 sequences were aligned in Table 19. […]

Biotinylated hPK = biological target: T1, Biotinylated hPK (Homo sapiens, UniProt P03952); assay: Phage selections, abundance of sequences in selection outputs; format: binding; conditions: for Frequency (relative abundance in the total selection outputs): randomised WPAR motif at positions 2, 3, 4 & 5 within the 06-34-03 sequence
T1 construct: IHPKA, from human plasma; purchased Innovative Research, Novi, MI, USA IHPKA; host or cells: human plasma
T1 sequence (P03952 20-638): as above

[2] = randomised WPAR motif at positions 2, 3, 4 & 5 within the 06-34-03 sequence, 1 = best binding
[3] = WPAR domain fixed, positions 1, 6, 7, 8, 9 & 10 randomised, top 50

In the case of “SEQ ID NO: 84 (CSFPFRCTHQDLC; Synthetic sequence Kallikrein binder identified from selections using a randomised WPAR motif at positions 2, 3, 4 & 5 within the 06-34-03 sequence of PCT/EP2012/069898 (SEQ ID NO 58))”, the “Rank (sequences ranked according to Kallikrein binding)” value (“Rank” below) [1, 2] is reported as 12 and the “Frequency (relative abundance in the total selection outputs)” value (Biotinylated hPK) is reported as 2.

For “SEQ ID NO: 97 (CSLPFRCTHQDLC; Synthetic sequence Kallikrein binder identified from selections using a randomised WPAR motif at positions 2, 3, 4 & 5 within the 06-34-03 sequence of PCT/EP2012/069898 (SEQ ID NO 58))”, the “Rank” value [1, 2] was 25 and the “Frequency (relative abundance in the total selection outputs)” value (Biotinylated hPK) was 2.

In the case of “WPAR: phage clone: WPAR at positions 2-5 within the 06-34-03 sequence, TBMB-cyclised (also: TBMB-cyclised within the 06-34-03 context, the cysteines lie outside this motif)”, the “Kallikrein binding in target binding assay” value [1] is reported as “optimal sequence for Kallikrein binding”, the “Relative abundance of motif in selection output” value (Biotinylated hPK; 2nd stringency from High (1st value of cell)) is reported as 19% and the “Relative abundance of motif in selection output” value (Biotinylated hPK; 3rd stringency from High (2nd value of cell)) is reported as 13%. The “Relative abundance of motif in selection output” value (Biotinylated hPK; 4th stringency from High (3rd value of cell)) was 22%, the “Relative abundance of motif in selection output” value (Biotinylated hPK; 5th stringency from High (4th value of cell)) was 6% and the “Relative abundance of motif in selection output” value (Biotinylated hPK; stringency High) was 17%. For the same compound, the “Relative abundance of motif in selection output” value (Biotinylated hPK; stringency LOW) was 4%.

For “SEQ ID NO: 88 (CSLPFKCTHQDLC; Synthetic sequence Kallikrein binder identified from selections using a randomised WPAR motif at positions 2, 3, 4 & 5 within the 06-34-03 sequence of PCT/EP2012/069898 (SEQ ID NO 58))”, the “Rank” value [1, 2] was 16 and the “Frequency (relative abundance in the total selection outputs)” value (Biotinylated hPK) was 1.

With “SEQ ID NO: 85 (CSLPFRCTHQDLC; Synthetic sequence Kallikrein binder identified from selections using a randomised WPAR motif at positions 2, 3, 4 & 5 within the 06-34-03 sequence of PCT/EP2012/069898 (SEQ ID NO 58))” the “Rank” value [1, 2] was 13 and the “Frequency (relative abundance in the total selection outputs)” value (Biotinylated hPK) was 3.

“SEQ ID NO: 89 (CSLPFRCTHQDLC; Synthetic sequence Kallikrein binder identified from selections using a randomised WPAR motif at positions 2, 3, 4 & 5 within the 06-34-03 sequence of PCT/EP2012/069898 (SEQ ID NO 58))” was tested, and the “Rank” value [1, 2] was 17 and the “Frequency (relative abundance in the total selection outputs)” value (Biotinylated hPK) was 4.

With “SEQ ID NO: 75 (CSFPFRCTHQDLC; Synthetic sequence Kallikrein binder identified from selections using a randomised WPAR motif at positions 2, 3, 4 & 5 within the 06-34-03 sequence of PCT/EP2012/069898 (SEQ ID NO 58))” the “Rank” value [1, 2] was 3 and the “Frequency (relative abundance in the total selection outputs)” value (Biotinylated hPK) was 17.

For “SEQ ID NO: 133 (CLWPARCTHADLC; Synthetic sequence Kallikrein binder containing a WPAR motif)”, the “Rank” value [1, 3] was 20.

In the case of “SEQ ID NO: 159 (CRWPARCTHTDLC; Synthetic sequence Kallikrein binder containing a WPAR motif)”, the “Rank” value [1, 3] is reported as 46.

With “SEQ ID NO: 153 (CAWPARCTHQTMC; Synthetic sequence Kallikrein binder containing a WPAR motif)” the “Rank” value [1, 3] was 40.

In the case of “SEQ ID NO: 157 (CLWPARCLTTELC; Synthetic sequence Kallikrein binder containing a WPAR motif)”, the “Rank” value [1, 3] is reported as 44.

In the case of “SEQ ID NO: 145 (CAWPARCMHDDLC; Synthetic sequence Kallikrein binder containing a WPAR motif)”, the “Rank” value [1, 3] is reported as 32.

For “SEQ ID NO: 120 (CAWPARCTHTDLC; Synthetic sequence Kallikrein binder containing a WPAR motif)”, the “Rank” value [1, 3] was 7.

With “SEQ ID NO: 140 (CHWPARCMHQDLC; Synthetic sequence Kallikrein binder containing a WPAR motif)” the “Rank” value [1, 3] was 27.

For “SEQ ID NO: 92 (CSLPFKCTHQDLC; Synthetic sequence Kallikrein binder identified from selections using a randomised WPAR motif at positions 2, 3, 4 & 5 within the 06-34-03 sequence of PCT/EP2012/069898 (SEQ ID NO 58))”, the “Rank” value [1, 2] was 20 and the “Frequency (relative abundance in the total selection outputs)” value (Biotinylated hPK) was 1.

For “SEQ ID NO: 158 (CSWPARCTHAEMC; Synthetic sequence Kallikrein binder containing a WPAR motif)”, the “Rank” value [1, 3] was 45.

With “SEQ ID NO: 143 (CPWPARCTHQNLC; Synthetic sequence Kallikrein binder containing a WPAR motif)” the “Rank” value [1, 3] was 30.

With “SEQ ID NO: 127 (CAWPARCTHVDLC; Synthetic sequence Kallikrein binder containing a WPAR motif)” the “Rank” value [1, 3] was 14.

“SEQ ID NO: 125 (CAWPARCLHDDLC; Synthetic sequence Kallikrein binder containing a WPAR motif)” was tested, and the “Rank” value [1, 3] was 12.

For “SEQ ID NO: 118 (CSWPARCTHADLC; Synthetic sequence Kallikrein binder containing a WPAR motif)”, the “Rank” value [1, 3] was 5.

With “SEQ ID NO: 154 (CTWPARCLHQHMC; Synthetic sequence Kallikrein binder containing a WPAR motif)” the “Rank” value [1, 3] was 41.

For “SEQ ID NO: 162 (CSWPARCLHDDLC; Synthetic sequence Kallikrein binder containing a WPAR motif)”, the “Rank” value [1, 3] was 49.

For “SEQ ID NO: 146 (CSWPARCLHTELC; Synthetic sequence Kallikrein binder containing a WPAR motif)”, the “Rank” value [1, 3] was 33.

With `CC(C)C[C@@H]1NC(=O)[C@H](CC(=O)O)NC(=O)[C@H](CCC(N)=O)NC(=O)[C@H](Cc2c[nH]cn2)NC(=O)[C@H]([C@@H](C)O)NC(=O)[C@@H]2CSCc3cc(cc(c3)CSC[C@@H](C(=O)N[C@@H](C)C(N)=O)NC1=O)CSC[C@H](NC(=O)[C@H](C)N)C(=O)N[C@@H](CO)C(=O)N[C@@H](Cc1c[nH]c3ccccc13)C(=O)N1CCC[C@H]1C(=O)N[C@@H](C)C(=O)N[C@@H](CCCNC(=N)N)C(=O)N2` [Peptide 06-34-03] (H-ACSWPARCTHQDLCA-NH2; linker 2-8-14 via TBMB; N-terminus and C-terminus assumed) the “Kallikrein binding in target binding assay” value [1] was “one of the best sequences”.
